Data reported in patent US20070110757A1.
Numbering of substitutions follows the chain as printed.

B1: A4B4 Fab fragment (Fab, V domains shown)
VH: QVTLRESGPALVKPTQTLTLTCTFSGFSLSTAGMSVGWIRQPPGKALEWLADIWWDDKKHYNPSLKDRLTISKDTSKNQVVLKVTNMDPADTATYYCARDMIFNFYFDVWGQGTTVTVSS
VL: DIQMTQSPSTLSASVGDRVTITCSASSRVGYMHWYQQKPGKAPKLLIYDTFFLDSGVPSRFSGSGSGTEFTLTISSLQPDDFATYYCFQGSGYPFTFGGGTKVEIK
B2: A13a11 Fab fragment (Fab, V domains shown)
VH: B1 VH with F105W
VL: B1 VL with A25P, F51Y, F52R, L53H, D54S
B3: A1h5 Fab fragment (Fab, V domains shown)
VH: B1 VH with D57G, F105W
VL: B1 VL with A25L, R28S, L53H, D54R

Each binder was assayed against RSV F protein on respiratory syncytial virus (RSV-Long strain) (respiratory syncytial virus (Long strain)) (UniProt P12568) (assay: cell-based or functional assay).
Sequence of RSV F protein on respiratory syncytial virus (RSV-Long strain) (respiratory syncytial virus (Long strain)) (P12568 26-574): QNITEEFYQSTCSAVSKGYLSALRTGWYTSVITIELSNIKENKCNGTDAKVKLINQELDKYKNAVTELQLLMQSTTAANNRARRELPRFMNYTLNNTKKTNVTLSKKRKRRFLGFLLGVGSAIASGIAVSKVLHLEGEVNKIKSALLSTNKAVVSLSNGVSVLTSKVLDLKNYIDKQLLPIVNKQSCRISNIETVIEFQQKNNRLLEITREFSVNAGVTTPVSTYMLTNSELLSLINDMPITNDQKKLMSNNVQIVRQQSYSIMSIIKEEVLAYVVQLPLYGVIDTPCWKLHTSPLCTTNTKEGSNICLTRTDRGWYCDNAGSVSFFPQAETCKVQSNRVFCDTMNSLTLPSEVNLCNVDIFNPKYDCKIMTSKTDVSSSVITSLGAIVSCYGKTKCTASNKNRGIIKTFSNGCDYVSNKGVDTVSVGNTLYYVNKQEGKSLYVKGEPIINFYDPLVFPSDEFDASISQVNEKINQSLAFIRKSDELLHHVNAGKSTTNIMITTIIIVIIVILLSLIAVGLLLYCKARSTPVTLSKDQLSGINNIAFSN

Binder	Fold Difference (Control IC50) [fold]	Fold Difference (Curve IC50) [fold]	Mean IC50 (Control), RSV microneutralization [µg/mL]	Mean IC50 (Curve), RSV microneutralization [µg/mL]
B1	13	11	0.0411	0.0414
B2	5	4	0.102	0.12
B3	3	2	0.176	0.194
